# Assay results taken from publication PMC3084762, “Distinct Properties of Hexameric but Functionally Conserved Mycobacterium tuberculosis Transcription-Repair Coupling Factor” (PLoS ONE, 2011).
# B1: Mycobacterium tuberculosis Mfd (transcription-repair coupling factor), full length, His-tagged (natural protein)
# chain: MTAPGPACSDTPIAGLVELALSAPTFQQLMQRAGGRPDELTLIAPASARLLVASALARQGPLLVVTATGREADDLAAELRGVFGDAVALLPSWETLPHERLSPGVDTVGTRLMALRRLAHPDDAQLGPPLGVVVTSVRSLLQPMTPQLGMMEPLTLTVGDESPFDGVVARLVELAYTRVDMVGRRGEFAVRGGILDIFAPTAEHPVRVEFWGDEITEMRMFSVADQRSIPEIDIHTLVAFACRELLLSEDVRARAAQLAARHPAAESTVTGSASDMLAKLAEGIAVDGMEAVLPVLWSDGHALLTDQLPDGTPVLVCDPEKVRTRAADLIRTGREFLEASWSVAALGTAENQAPVDVEQLGGSGFVELDQVRAAAARTGHPWWTLSQLSDESAIELDVRAAPSARGHQRDIDEIFAMLRAHIATGGYAALVAPGTGTAHRVVERLSESDTPAGMLDPGQAPKPGVVGVLQGPLRDGVIIPGANLVVITETDLTGSRVSAAEGKRLAAKRRNIVDPLALTAGDLVVHDQHGIGRFVEMVERTVGGARREYLVLEYASAKRGGGAKNTDKLYVPMDSLDQLSRYVGGQAPALSRLGGSDWANTKTKARRAVREIAGELVSLYAKRQASPGHAFSPDTPWQAELEDAFGFTETVDQLTAIEEVKADMEKPIPMDRVICGDVGYGKTEIAVRAAFKAVQDGKQVAVLVPTTLLADQHLQTFGERMSGFPVTIKGLSRFTDAAESRAVIDGLADGSVDIVIGTHRLLQTGVRWKDLGLVVVDEEQRFGVEHKEHIKSLRTHVDVLTMSATPIPRTLEMSLAGIREMSTILTPPEERYPVLTYVGPHDDKQIAAALRRELLRDGQAFYVHNRVSSIDAAAARVRELVPEARVVVAHGQMPEDLLETTVQRFWNREHDILVCTTIVETGLDISNANTLIVERADTFGLSQLHQLRGRVGRSRERGYAYFLYPPQVPLTETAYDRLATIAQNNELGAGMAVALKDLEIRGAGNVLGIEQSGHVAGVGFDLYVRLVGEALETYRDAYRAAADGQTVRTAEEPKDVRIDLPVDAHLPPDYIASDRLRLEGYRRLAAASSDREVAAVVDELTDRYGALPEPARRLAAVARLRLLCRGSGITDVTAASAATVRLSPLTLPDSAQVRLKRMYPGAHYRATTATVQVPIPRAGGLGAPRIRDVELVQMVADLITALAGKPRQHIGITNPSPPGEDGRGRNTTIKERQP
# notes: also called MtbMfd; His-tagged MtbMfd; not shown: His tag, N-terminal, kept
# B2: MtbMfd, endogenous in M. tuberculosis H37Ra cell lysate (natural protein)
# chain: MTAPGPACSDTPIAGLVELALSAPTFQQLMQRAGGRPDELTLIAPASARLLVASALARQGPLLVVTATGREADDLAAELRGVFGDAVALLPSWETLPHERLSPGVDTVGTRLMALRRLAHPDDAQLGPPLGVVVTSVRSLLQPMTPQLGMMEPLTLTVGDESPFDGVVARLVELAYTRVDMVGRRGEFAVRGGILDIFAPTAEHPVRVEFWGDEITEMRMFSVADQRSIPEIDIHTLVAFACRELLLSEDVRARAAQLAARHPAAESTVTGSASDMLAKLAEGIAVDGMEAVLPVLWSDGHALLTDQLPDGTPVLVCDPEKVRTRAADLIRTGREFLEASWSVAALGTAENQAPVDVEQLGGSGFVELDQVRAAAARTGHPWWTLSQLSDESAIELDVRAAPSARGHQRDIDEIFAMLRAHIATGGYAALVAPGTGTAHRVVERLSESDTPAGMLDPGQAPKPGVVGVLQGPLRDGVIIPGANLVVITETDLTGSRVSAAEGKRLAAKRRNIVDPLALTAGDLVVHDQHGIGRFVEMVERTVGGARREYLVLEYASAKRGGGAKNTDKLYVPMDSLDQLSRYVGGQAPALSRLGGSDWANTKTKARRAVREIAGELVSLYAKRQASPGHAFSPDTPWQAELEDAFGFTETVDQLTAIEEVKADMEKPIPMDRVICGDVGYGKTEIAVRAAFKAVQDGKQVAVLVPTTLLADQHLQTFGERMSGFPVTIKGLSRFTDAAESRAVIDGLADGSVDIVIGTHRLLQTGVRWKDLGLVVVDEEQRFGVEHKEHIKSLRTHVDVLTMSATPIPRTLEMSLAGIREMSTILTPPEERYPVLTYVGPHDDKQIAAALRRELLRDGQAFYVHNRVSSIDAAAARVRELVPEARVVVAHGQMPEDLLETTVQRFWNREHDILVCTTIVETGLDISNANTLIVERADTFGLSQLHQLRGRVGRSRERGYAYFLYPPQVPLTETAYDRLATIAQNNELGAGMAVALKDLEIRGAGNVLGIEQSGHVAGVGFDLYVRLVGEALETYRDAYRAAADGQTVRTAEEPKDVRIDLPVDAHLPPDYIASDRLRLEGYRRLAAASSDREVAAVVDELTDRYGALPEPARRLAAVARLRLLCRGSGITDVTAASAATVRLSPLTLPDSAQVRLKRMYPGAHYRATTATVQVPIPRAGGLGAPRIRDVELVQMVADLITALAGKPRQHIGITNPSPPGEDGRGRNTTIKERQP
# B3: purified untagged or native MtbMfd (natural protein)
# chain: MTAPGPACSDTPIAGLVELALSAPTFQQLMQRAGGRPDELTLIAPASARLLVASALARQGPLLVVTATGREADDLAAELRGVFGDAVALLPSWETLPHERLSPGVDTVGTRLMALRRLAHPDDAQLGPPLGVVVTSVRSLLQPMTPQLGMMEPLTLTVGDESPFDGVVARLVELAYTRVDMVGRRGEFAVRGGILDIFAPTAEHPVRVEFWGDEITEMRMFSVADQRSIPEIDIHTLVAFACRELLLSEDVRARAAQLAARHPAAESTVTGSASDMLAKLAEGIAVDGMEAVLPVLWSDGHALLTDQLPDGTPVLVCDPEKVRTRAADLIRTGREFLEASWSVAALGTAENQAPVDVEQLGGSGFVELDQVRAAAARTGHPWWTLSQLSDESAIELDVRAAPSARGHQRDIDEIFAMLRAHIATGGYAALVAPGTGTAHRVVERLSESDTPAGMLDPGQAPKPGVVGVLQGPLRDGVIIPGANLVVITETDLTGSRVSAAEGKRLAAKRRNIVDPLALTAGDLVVHDQHGIGRFVEMVERTVGGARREYLVLEYASAKRGGGAKNTDKLYVPMDSLDQLSRYVGGQAPALSRLGGSDWANTKTKARRAVREIAGELVSLYAKRQASPGHAFSPDTPWQAELEDAFGFTETVDQLTAIEEVKADMEKPIPMDRVICGDVGYGKTEIAVRAAFKAVQDGKQVAVLVPTTLLADQHLQTFGERMSGFPVTIKGLSRFTDAAESRAVIDGLADGSVDIVIGTHRLLQTGVRWKDLGLVVVDEEQRFGVEHKEHIKSLRTHVDVLTMSATPIPRTLEMSLAGIREMSTILTPPEERYPVLTYVGPHDDKQIAAALRRELLRDGQAFYVHNRVSSIDAAAARVRELVPEARVVVAHGQMPEDLLETTVQRFWNREHDILVCTTIVETGLDISNANTLIVERADTFGLSQLHQLRGRVGRSRERGYAYFLYPPQVPLTETAYDRLATIAQNNELGAGMAVALKDLEIRGAGNVLGIEQSGHVAGVGFDLYVRLVGEALETYRDAYRAAADGQTVRTAEEPKDVRIDLPVDAHLPPDYIASDRLRLEGYRRLAAASSDREVAAVVDELTDRYGALPEPARRLAAVARLRLLCRGSGITDVTAASAATVRLSPLTLPDSAQVRLKRMYPGAHYRATTATVQVPIPRAGGLGAPRIRDVELVQMVADLITALAGKPRQHIGITNPSPPGEDGRGRNTTIKERQP
# notes: also called untagged MtbMfd
# What was measured:
# NTD of MtbMfd = molecular target: T1, NTD of MtbMfd (Mycobacterium tuberculosis, UniProt P9WMQ5)
# T1 construct: gene mfd
# SEC = molecular target: the molecule itself; experiment: SEC
# dynamic light scattering = molecular target: the molecule itself; experiment: dynamic light scattering
Molecule,Ksv (NTD of MtbMfd),stoichiometry N (SEC),stoichiometry N (dynamic light scattering)
Nc1ncnc2c1ncn2[C@@H]1O[C@H](COP(=O)(O)OP(=O)(O)OP(=O)(O)O)[C@@H](O)[C@H]1O [ATP],526 µM,,
B1,,6,~6
B2,,6,
B3,,6,
